According to paper doi:10.1101/2024.06.07.597973:

Biological target: human melanocortin 4 receptor (MC4R) (human) (UniProt P32245)
Test: radioligand binding

Sequence of UniProt P32245 (P32245 whole entry): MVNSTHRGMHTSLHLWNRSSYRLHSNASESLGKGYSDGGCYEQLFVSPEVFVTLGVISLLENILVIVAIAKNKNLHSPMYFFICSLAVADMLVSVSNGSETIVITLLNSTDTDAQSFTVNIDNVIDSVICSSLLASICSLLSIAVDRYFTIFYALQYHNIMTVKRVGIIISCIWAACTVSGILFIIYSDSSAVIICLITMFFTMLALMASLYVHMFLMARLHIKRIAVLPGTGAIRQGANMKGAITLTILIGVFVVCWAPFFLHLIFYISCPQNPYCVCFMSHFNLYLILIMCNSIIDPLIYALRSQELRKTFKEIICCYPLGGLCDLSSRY

Kd: 0.1 nM
Substance: [^125I]-[Nle^4, DPhe^7]-α-MSH (peptide)
